# Laboratory results: patent US9827288B2, “Method for treating a refractory or relapsed lung cancer” (MYCOMAGIC BIOTECHNOLOGY CO., LTD., priority 2015, dated 2017)
# Assays:
# LLC1 cells = assay: Tumor growth in LLC1 allograft mice; type: in vivo; details: vs PBS
# Protocol: Male C57BL/6 (6-8 weeks of age) mice were subcutaneously inoculated with LLC1 cells and randomly divided into two groups. Seven days after implantation, the mice were treated with GMI (5 mg/kg) via i.p. injections at intervals of 4 days. The control group received an equal volume of sterile PBS.
# The mice will be weighed and randomly distributed across the different experimental groups (n=5). At day 0, approximately 2×10^5 lung cancer cells suspended in 100 μl serum free DMEM will be subcutaneously (s.c.) implanted into the right flank of all mice for easy observed detection. The mice were sacrificed on the 25th day and the tumors were then excised. […] Tumor size was measured (FIG. 1A) for each mouse using a set of digital calipers at 4 days, and the tumor volume was calculated by the formula L1×L2×H, where L1 is long diameter, L2 is the short diameter and H is the height of the tumor. Representative images of the tumors on the 25th day (FIG. 1B).
# We further examined the effect of rLZ-8 on mice with LLC1-allograft in vivo. LLC1 cells were subcutaneously injected into male C57BL6 mice, and the tumor growth rate was assessed over 17 days.
# EGFR [1] = assay: Western blot of EGFR level in H1975 cells; type: cell-based, human
# Protocol: Knocking down of EGFR by EGFR siRNA activated activity of caspase3/7, resulting in apoptosis in gefitinib-resistant H1975 cells (Chen G et al., BMC Med. 2012; 10:28). To investigate the apoptosis, human H1975 cells were seed in 60-mm plat-dish and incubated with rLZ-8 (5 μg/ml) and GMI (10 μg/ml) for 48 hours and 72 hours, respectively.
# EGFR [2] = biological target: T1, EGFR (Homo sapiens, UniProt P00533); assay: Western blotting to detect expression of EGFR in CL1-5 and H226 cells; type: cell-based; parameters: endogenous in cells; host or cells: CL1-5 and H226 cells; details: 5 μg/ml for CL1-5 and 10 μg/ml for H226, 0-12 h
# Protocol: CL1-5 and H226 cells were incubated with rLZ-8 and GMI (5 μg/ml for CL1-5 and 10 μg/ml for H226) for 0-12 h followed by western blotting to detect expression of EGFR. […] The regulatory mechanisms of ligand-induced EGFR degradation dependent on endocytosis (Hicke L., FASEB J. 1997; 11:1215-26.). To investigate whether rLZ-8-induced EGFR degradation by inducing endocytosis, we performed depletion of clathrin heavy chain experiments in NSCLC cells. Using clathrin heavy chain shRNAs such as #2755 (sh-S1), #2757 (sh-S2) and #7981 (sh-S3), we confirm the efficacy of clathrin shRNAs, and we found (via Western blot analysis) that clathrin knockdown leads to a reduction in the overall protein levels of clathrin in CL1-5 and H226 cells (FIG. 4B). Next, we examined whether the rLZ-8-induced EGFR degradation dependent on clathrin-mediated endocytosis in NSCLC cells.
# EGFR [3] = biological target: T1, EGFR; assay: Co-localization with EGFR by fluorescence microscopy; type: cell-based; parameters: endogenous in cells; host or cells: CL1-5 and H226 cells; details: H226 cells
# Protocol: (§1) Science the downregulation of EGFR by rLZ-8 and GMI may involve an intracellular pathway similar to that induced by EGF-mediated EGFR endocytosis and degradation, we hypothesized that rLZ-8 and GMI could interact with EGFR. The co-locolization of rLZ-8/GMI and EGFR were determined by fluorescence microscopy. […] To further examine the association of rLZ-8 and EGFR, immunoprecipitation assay was performed by anti-EGFR and anti-his-tag (for detecting rLZ-8) antibody.
# EGFR [4] = biological target: T1, EGFR; assay: Immunoprecipitation assay with anti-EGFR and anti-his-tag antibody; type: binding; parameters: After treatment of rLZ-8 in A549; endogenous in cells; host or cells: A549 cells; details: A549 cells treated with rLZ-8
# Protocol: as §1
Molecule,"tumor volume (LLC1 cells; LLC1-bearing male C57BL/6 mice, GMI 5 mg/kg i.p. at intervals of 4 days from day 7, to 25th day)","EGFR level (EGFR [1]; GMI 10 μg/ml, 72 hours)",EGFR protein levels (EGFR [2]),"tumor volume (LLC1 cells; LLC1-bearing male C57BL6 mice, rLZ-8 7.5 mg/kg, over 17 days)","tumor weight (LLC1 cells; LLC1-bearing male C57BL6 mice, rLZ-8 7.5 mg/kg)","EGFR level (EGFR [1]; rLZ-8 5 μg/ml, 48 hours)",co-localization with EGFR (EGFR [3]),association with EGFR (immunoprecipitation) (EGFR [4])
"GMI: recombinant immunomodulatory protein derived from Ganoderma microsporum, manufactured by Mycomagic Biotechnology per U.S. Pat. No. 7,601,808 (protein, Ganoderma microsporum (GMI) or a recombinant thereof (reGMI)) EAEAEFMSDTALIFTLAWNVKQLAFDYTPNWGRGRPSSFIDTVTFPTVLTDKAYTYRVVVSGKDLGVRPSYAVESDGSQKINFLEYNSGYGIADTNTIQVYVIDPDTGNNFIVAQWNYLEQKLISEEDLNSAVDHHHHHH",significantly decreases tumor volume,induced downregulation of EGFR level,significantly suppressed the EGFR protein levels,–,–,–,–,–
"rLZ-8: his-tagged recombinant fungal immunomodulatory protein LZ-8 from Ganoderma lucidum (SEQ ID NO:5) (protein, listed as Ganoderma lucidum, His tag) MSDTALIFRLAWDVKKLSFDYTPNWGRGNPNNFIDTVTTFPKVLTDKAYTYRVAVSGRNLGVKPSYAVESDGSQKVNFLEYNSGYGIADTNTIQVFVVDPDTNNDFIIAQWN",–,–,significantly suppressed the EGFR protein levels,significantly decreases tumor volume,significantly decreases,induced downregulation of EGFR level,mainly co-localized on the plasma membrane and formed the punctuate intracellular clusters in the cytoplasm,present in the immunoprecipitants obtained by the anti-EGFR antibody
